Data on two substances can be found in article PMC6362458 (Journal of the American Chemical Society, 2017).

Data set [1] is described as follows: Photolysis of P2-insulin suspension in pH 7.2 PBS. Format: physicochemical.
Data set [2] can be described thus: Visual precipitation on pH shift and clarification on photolysis. The data set is classed as physicochemical. The conditions noted are these: 75µM, 10 minutes 365nm LED (1.84 mW/cm^2).
The conditions of data set [3]: 2 h.
The nature of data set [4]: Isoelectric point determination by IEF gel electrophoresis. The data set is classed as physicochemical. The conditions noted are these: data not shown.
The conditions of data set [5]: cited from earlier work.

With “P2-Insulin: insulin with two pyrrolidines linked via the photocleavable DMNPE group; likely mixture of modified carboxyl sites”, the “Insulin released from unirradiated control suspension” value in data set [1] (pH 7.2 PBS suspension processed identically, no 365 nm irradiation, IEF gel) is “no insulin released”. In data set [1] (pH 7.2 PBS, IEF gel of supernatant), the “P2-insulin in supernatant of irradiated suspension” value is reported as “no detectable P2-insulin”. Also, the “Appearance of pH 7.2 suspension after irradiation” value in data set [2] is “substantially clarified the suspension”. The “Solubility at pH 4” value in data set [3] was 216 µM.
Turning to insulin, in data set [4], the “pI of insulin reacted with uncharged DMNPE derivative vs native insulin” value is given as 5.4. The “pI (isoelectric point)” value in data set [5] was 5.4.

Broadly, the Solubility is how much of the substance goes into solution per volume. A higher Solubility goes with much dissolved substance.
